The values that follow come from article PMC6261512 (Protein expression and purification, 2018).

This data set deals with the molecule itself. Kind of data set: SEC.

B1: MBP-5-HT3A-ICD chimera (maltose-binding protein and the intracellular domain of the mouse serotonin type 3A receptor) (domain or fragment, UniProt P23979 327-466, looked up)
chain: ETIFIVRLVHKQDLQRPVPDWLRHLVLDRIAWILCLGEQPMAHRPPATFQANKTDDCSGSDLLPAMGNHCSHVGGPQDLEKTPRGRGSPLPPPREASLAVRGLLQELSSIRHFLEKRDEMREVARDWLRVGYVLDRLLFR
For the protein B1, the “stoichiometry N” value was 5.
